Our source for the activity values is patent US20140193915, “COMPOSITIONS AND METHODS FOR CUSTOM SITE-SPECIFIC DNA RECOMBINASES” (Monsanto Technology, LLC, published 2014).

One series concerns the target T1, sN-TALER IIb-1 (synthetic).
T1 chain: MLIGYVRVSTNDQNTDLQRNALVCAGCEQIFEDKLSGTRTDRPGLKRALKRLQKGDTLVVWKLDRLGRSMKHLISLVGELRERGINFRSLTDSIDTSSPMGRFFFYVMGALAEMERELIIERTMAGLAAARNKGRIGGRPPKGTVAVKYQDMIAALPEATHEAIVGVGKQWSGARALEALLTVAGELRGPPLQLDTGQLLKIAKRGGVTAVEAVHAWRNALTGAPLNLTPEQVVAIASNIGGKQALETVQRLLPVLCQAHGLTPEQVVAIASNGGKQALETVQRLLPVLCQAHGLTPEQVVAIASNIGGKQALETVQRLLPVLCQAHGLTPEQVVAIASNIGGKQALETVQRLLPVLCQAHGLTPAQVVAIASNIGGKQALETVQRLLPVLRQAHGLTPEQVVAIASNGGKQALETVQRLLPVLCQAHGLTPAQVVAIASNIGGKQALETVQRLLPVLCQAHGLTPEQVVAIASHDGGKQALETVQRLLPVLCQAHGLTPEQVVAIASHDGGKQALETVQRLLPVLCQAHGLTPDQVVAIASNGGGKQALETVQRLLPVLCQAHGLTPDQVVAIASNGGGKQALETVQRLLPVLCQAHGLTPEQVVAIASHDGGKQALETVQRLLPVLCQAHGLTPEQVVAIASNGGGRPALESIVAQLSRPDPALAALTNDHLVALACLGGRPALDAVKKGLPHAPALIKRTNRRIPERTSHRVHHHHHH
As to the kind of experiment: cell_activity; E. coli. The following applies: tags: 6-His. The essentials:
(§1)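 DH5alpha cells co-transformed (heat shock or electroporation) with N-TALER expression and reporter plasmids at ~1:1 mass ratio; reporter alone as control. Plated on chloramphenicol/kanamycin/X-gal, grown 37° C. for 18 to 36 hours; recombination scored by colony colour.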

In a further series the target is T2, sN-TALER III-1 (synthetic).
T2 chain: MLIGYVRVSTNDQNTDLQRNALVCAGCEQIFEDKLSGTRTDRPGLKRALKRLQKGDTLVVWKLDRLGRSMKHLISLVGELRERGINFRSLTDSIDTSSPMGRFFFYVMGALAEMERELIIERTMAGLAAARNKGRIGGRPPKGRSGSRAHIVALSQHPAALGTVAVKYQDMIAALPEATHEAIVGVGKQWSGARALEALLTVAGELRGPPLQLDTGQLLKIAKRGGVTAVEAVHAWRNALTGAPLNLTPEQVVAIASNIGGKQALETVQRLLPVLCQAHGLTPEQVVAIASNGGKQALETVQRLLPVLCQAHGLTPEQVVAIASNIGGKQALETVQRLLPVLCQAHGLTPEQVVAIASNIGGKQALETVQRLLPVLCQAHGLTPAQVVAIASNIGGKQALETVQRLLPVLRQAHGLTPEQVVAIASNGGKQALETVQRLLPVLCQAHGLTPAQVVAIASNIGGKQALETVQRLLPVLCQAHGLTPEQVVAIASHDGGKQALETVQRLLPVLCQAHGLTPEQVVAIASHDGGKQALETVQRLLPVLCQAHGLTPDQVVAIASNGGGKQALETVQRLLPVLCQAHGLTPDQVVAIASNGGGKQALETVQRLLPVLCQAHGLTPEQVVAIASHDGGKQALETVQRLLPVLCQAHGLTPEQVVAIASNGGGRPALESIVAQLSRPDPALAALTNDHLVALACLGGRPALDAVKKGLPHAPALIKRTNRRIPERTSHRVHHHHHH
Put plainly: cell_activity; E. coli. Conditions: tags: 6-His. In a few lines: as §1

B1: Gin18TALE+0 (dsDNA)
DNA 1: AGAAGGTATTTATACCAAAACCATGGTTTACATATAAATACCTTCT
DNA 2: AGAAGGTATTTATATGTAAACCATGGTTTTGGTATAAATACCTTCT
With B1, the activity with sN-TALER IIb-1 came out at 3 score; with sN-TALER III-1, 4.5 score.
